Test results as given in PMC8782923, “A Klotho-derived peptide protects against kidney fibrosis by targeting TGF-β signaling” (Nature Communications, 2022).
Several values for one entry are separate records, joined by “and”; a condition that tells them apart may be missing. Identical values can stand only once.

System: NRK-49F cells
Assay: α-SMA mRNA induced by TGF-β1 in NRK-49F cells (qRT-PCR)
Format: cell-based, rat
Details: TGF-β1 2 ng/ml, KP1 or sKlotho 10 µg/ml, individual values, n = 4, Fig. 1b
Experimental: Normal rat kidney interstitial fibroblasts (NRK-49F) and human proximal tubular epithelial cells (HKC-8) were cultured at 37 °C. NRK-49F cells were serum-starved for 24 h and were pretreated with KP1 (10 µg/ml, 3 µM) for 1 h prior to incubation with TGF-β1 (#240-B; R&D Systems) at 2 ng/ml. Cells were collected at 45 min or 24 h after TGF-β1 treatment, respectively. Whole-cell lysates were prepared and subjected to Western blot analyses. For some experiments, cells were transiently transfected with expression vector human secreted Klotho (sKlotho) that only contains KL1 domain[48], by using Lipofectamine 2000 reagent (Invitrogen, Grand Island, NY) prior to treatment with TGF-β1.
Total RNA was isolated from NRK-49F cells by using a TRIzol RNA isolation system (Invitrogen, Carlsbad, CA). The cDNA was synthesized using 2 µg of RNA in 20 µl of reaction buffer containing AMV-RT (Promega, Madison, WI), random primers, and oligo primers at 42 °C for 60 min. Quantitative, real-time PCR (qRT-PCR) was performed using a Platinum SYBR Green qPCR Super Mix-UDG kit (Invitrogen). The sequences of the primer pairs: F: […]; R: […]. QPCR data were collected by Step one software v2.2.2.

B1: sKlotho: soluble Klotho; expression vector human secreted Klotho contains only KL1 domain (protein)
chain: EPGDGAQTWARFSRPPAPEAAGLFQGTFPDGFLWAVGSAAYQTEGGWQQHGKGASIWDTFTHHPLAPPGDSRNASLPLGAPSPLQPATGDVASDSYNNVFRDTEALRELGVTHYRFSISWARVLPNGSAGVPNREGLRYYRRLLERLRELGVQPVVTLYHWDLPQRLQDAYGGWANRALADHFRDYAELCFRHFGGQVKYWITIDNPYVVAWHGYATGRLAPGIRGSPRLGYLVAHNLLLAHAKVWHLYNTSFRPTQGGQVSIALSSHWINPRRMTDHSIKECQKSLDFVLGWFAKPVFIDGDYPESMKNNLSSILPDFTESEKKFIKGTADFFALCFGPTLSFQLLDPHMKFRQLESPNLRQLLSWIDLEFNHPQIFIVENGWFVSGTTKRDDAKYMYYLKKFIMETLKAIKLDGVDVIGYTAWSLMDGFEWHRGYSIRRGLFYVDFLSQDKMLLPKSSALFYQKLIEKNGFPPLPENQPLEGTFPCDFAWGVVDNYIQVSQLTKPISSLTKPYH
**Q.** For B1, which “α-SMA mRNA expression (relative)” value is on record?
**A.** The value was 10.7876 and 4.655 and 3.074 and 8.483.
